In US8697648B2, “Protein agent for diabetes treatment and β cell imaging” (Georgia State University Research Foundation, Inc., priority 2009, dated 2014):

How the values were obtained:
CHO cells = assay: Immunostaining binding analysis, CHO cells (no GLP-1R); format: cell-based; settings: Cal.GLP 10 μM, calbindin D9k 50 μM, 37° C., 30 mins
Procedure: (§1) FIG. 10 is a series of digital images showing immunofluorescence staining of CHO or RINm5F cells that were treated by calbindin (50 μM) and Cal.GLP (10 μM). The cells were extensively washed after 30 min treatments under 37° C. in microscopic chamber slides and subsequently fixed. The cells were stained with the calbindin-specific antibody and visualized under confocal microscopy. The light shading represents antibody staining.
(§2) To examine whether the developed protein indeed interacted with GLP-1R, the binding of the fusion protein with two cell lines, RINm5F and CHO cells was examined. It is well known that GLP-1R is expressed in RINm5F but not in CHO cells. Both RINm5F and CHO cells were incubated with fusion protein Cal.GLP (10 μM) or calbindin D9k (50 μM) at 37° C. for 30 mins. After extensive washing, the cells were fixed and subjected to immunostaining analyses using a rabbit polyclonal antibody against parental protein calbindin D9k. […] Similar binding analyses were carried out with RINm5F cells and a […] (αTC1).

Stability to boiling = format: physicochemical; settings: boiling for 10 minutes
Procedure: This property led to a simplified one ion-exchange column chromatography procedure of protein purification. The bacterial lysate was boiled for 10 minutes. Most bacterial proteins were precipitated due to denaturing by boiling. The fusion protein stayed in supernatant. The protein was then further purified by an ion-exchange column. Approximately 30-50 mg purified fusion protein per liter of bacterial culture were obtained.

RINm5F cells = assay: Immunostaining binding analysis, RINm5F cells (GLP-1R expressed); format: cell-based, rat; settings: Cal.GLP 10 μM, calbindin D9k 50 μM, 37° C., 30 mins
Procedure: as §1, §2

[1] = NMR and fluorescence spectrum analyses in different pH conditions; format: physicochemical; settings: pH 3, 5, 7, 9, 10
Procedure: FIG. 8 is a graph showing the fluorescence spectrum of the protein Cal.GLP (50 μM) at various pH values. The spectrum at each pH was compared to that of completely denatured Cal.GLP in 8M Urea.
(§3) The fusion protein Cal.GLP was incubated with 75% human serum for a time course (up to 48 hrs). The protein was then analyzed by SDS-PAGE and stained by coomassie blue.

[2] = Protein serum stability test in mice serum (SDS-PAGE); format: in vitro ADME; settings: mice serum 1:1, 37° C., 24 hrs
Procedure: FIG. 5 is a digital image of a gel analysis of a protein serum stability test. A 16% SDS-PAGE without DTT was used to analysis the protein level after incubation with mice serum for certain time. Lane 1: mice serum only; Lane 2: fusion protein only; Lanes 3-5: fusion protein incubated with 50% serum for 1 hr, 3 hrs, and 24 hrs respectively; Lane 6: PEGylated protein only; Lanes 7-9: PEGylated protein incubated with 50% serum for 1 hr, 3 hrs, and 24 hrs respectively.
The fusion protein and PEGylated protein were incubated with mice serum at a ratio 1:1, in 37° C. for 1 hr, 3 hrs and 24 hrs. Samples were then analyzed by 16% SDS-PAGE.
The fusion protein and PEGylated protein were incubated with mice serum at a 1:1 ratio at 37° C. for 1 hr, 3 hrs, and overnight. SDS-PAGE was then used to analyze the protein stability.

αTC1 cells = assay: Immunostaining binding analysis, αTC1 cells; format: cell-based
Procedure: as §2

CD-1 mice = assay: Toxicity in healthy CD-1 mice; format: in vivo; settings: one or two doses of 100 μl (6 mM), 14 days
Procedure: One group of mice (7 mice per group) were injected with one dose of 100 μl of the agent (6 mM) and another group of animals were injected with two doses of the agent (100 μl of agent (6 mM)) with 8 hours time interval between the two injections. The animals were returned to their cages for 14 days. Among 14 tested mice, no mouse died. All animals behaved normally (no change in eating habits. No abnormal weight gain or loss. No abnormal appearance on fur).

diabetic mice [3] = assay: Four week daily treatment, blood glucose and body weight (Example 19); format: in vivo; settings: 25 nmole/kg i.p. daily for 4 weeks
Procedure: (§4) Agents (indicated in the figures 25 nmole/kg) were administrated by i.p. at daily at the same time 2:00 pm for 4 weeks. The animals were returned to the ages. Blood samples (about 20 ml) were draw daily at 5:00 pm for 4 weeks. Glucose in blood samples was measured. Blood glucose levels were plotted against day. Animal body weight was weighed daily before drawing blood. Average body weight of each group of six mice was plotted against days.
as §4, with “The effects of the developed agent and PEGylated agents on blood glucose lowering in diabetic mice were examined in a four week treatment course. Agents” for “Agents”, “figures at” for “figures”, “i.p.” for “i.p. at”, “(−20 μl)” for “(about 20 ml)”

[4] = Stability in 75% human serum (SDS-PAGE); format: in vitro ADME; settings: 48 hour
Procedure: FIG. 7 is a digital image of an SDS-PAGE analysis of serum stability of the fusion protein Cal.GLP. […] Cal.GLP was incubated with 75% human serum (S+CA) in […] at 37° C. for 1 hour (lane 3), 3 hours (lane 4), and 24 hours (lane 5). The mixture was separated by 16% SDS-PAGE and visualized by coomassie blue staining. Lane 1 is 75% human serum (S) and lane 2 is Cal.GLP only (CA). Lane M is molecular weight markers.
as §3

diabetic mice [5] = assay: Blood glucose and glucose-dependent insulin secretion after co-administration with glucose (Example 16); format: in vivo; settings: 25 nmole/kg agent with 15 mmole/kg glucose i.p.
Procedure: FIG. 12 is a pair of graphs showing the changes in Δ blood glucose (Upper panel) and Δ insulin (bottom panel) in a group of 8 diabetic mice at different time points after injection of 15 mmole/kg of glucose with 25 nmole/kg of different agents.
The effects of the developed agent on blood glucose lowering and stimulating of the glucose-dependent insulin secretion in diabetic mice were also examined. The animals first fasted for 6 hours. The protein agent (25 nmole/kg) and glucose (15 mmole/kg) were co-administrated via intraperitoneal injection with a group of eight diabetic mice. The blood glucose and insulin levels were measured at different time points. As controls, the same dose of glucose was administrated alone and co-administrated with the parental protein calbindin in separate groups of diabetic mice.

[6] = test system: Diabetic mice (BKS.Cg-Lepr^db/db); assay: Blood glucose lowering in fed diabetic mice (Example 15); format: in vivo
Procedure: The animals were re-feed for 25 minutes 5 hours after drug administration and 35 minutes before the last time point of blood sample collection. The A Blood Glucose (mg/dl) was determined by calculating the difference between the measured blood glucose levels at any given time point and the initial blood glucose levels. The initial blood glucose levels were measured after feeding for 20 min and before the drug administration (time zero). The error bars represent standard deviations of measurements of eight mice.
The developed protein agent was tested to determine whether it had the in vivo capability of lowering blood glucose in diabetic subjects. Diabetic mice (BKS.Cg-Lepr^db/db, The Jackson Laboratory) were used as test subjects. A group of six animals first fasted for 6 hours. After fasting, the animals were fed for 30 minutes. The protein agent was administered after feeding by intraperitoneal injection at a dose of 25 nmole/kg. The animals were fed again for 30 mins, 5 hrs after agent administration. Blood samples were taken at different time points after administration of the agent. Glucose concentration in the blood samples was measured using a commercially available kit.

[7] = in vivo
[8] = R1 and R2 relaxivity with a relaxometer; format: physicochemical; settings: 1.4 T
Procedure: To ensure that the fusion protein is applicable as a MRI contrast agent, the Gd^3+ binding property and R1/R2 relaxivity of the fusion protein were tested using well-known methods.

GLP-1 receptor = biological target: T1, GLP-1 receptor (Rattus norvegicus, UniProt P32301); assay: Cell-based intracellular cAMP assay (Lance cAMP 384 kit) in RINm5F cells; settings: concentration around 200 μM
T1 construct: It is well known that GLP-1R is expressed in RINm5F but not in CHO cells; endogenous in cells; host or cells: RINm5F rat insulinoma cells
T1 sequence (P32301 22-463): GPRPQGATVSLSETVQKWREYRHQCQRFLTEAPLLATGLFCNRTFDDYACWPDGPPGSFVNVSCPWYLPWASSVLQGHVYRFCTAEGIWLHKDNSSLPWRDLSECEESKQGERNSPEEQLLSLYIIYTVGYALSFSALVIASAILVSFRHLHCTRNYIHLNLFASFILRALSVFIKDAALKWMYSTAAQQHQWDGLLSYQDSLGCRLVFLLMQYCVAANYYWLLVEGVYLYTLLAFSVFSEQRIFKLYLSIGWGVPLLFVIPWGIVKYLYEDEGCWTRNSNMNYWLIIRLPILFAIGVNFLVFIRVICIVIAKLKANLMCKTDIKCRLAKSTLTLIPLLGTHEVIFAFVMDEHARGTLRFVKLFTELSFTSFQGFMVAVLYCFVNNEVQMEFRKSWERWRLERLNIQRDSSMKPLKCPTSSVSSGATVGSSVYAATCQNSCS
Procedure: The cells were harvested 30 minutes post treatments. Cell lysates were prepared from the harvested cells. The cAMP levels in the lysate were then measured and expressed as pmole values. The error bars represent standard deviations of four times of measurements.
A Lance cAMP 384® Kit (Perkin Elmer, Inc) was used to compare the incretin effects of fusion protein and PEGylated protein. Rat Insulinoma cells (RINm5F) were cultured with RPMI1640 with 10% FBS in 75 cm^2 cell culture flasks. Cells are harvested and washed three times with HBSS (Invitrogen Corp.) buffer. A series of 5 μl test protein and 5 μl cell suspension with 5000 cells in stimulation buffer (1×HBSS buffer with 5 mM HEPES, 0.1% BSA and 150 mM IBMX) and Alexa, biotin labeled cAMP antibodies were incubated at 37° C. for 15 mins in 384-well plate. […] A VICTOR^3 plated reader (PerkinElmer, Inc.) was used to detect the fluorescence signal at excitation 340 nm and emission 665 nm and 615 nm. The collected data was then analyzed with the equation of F=F665 nm/F615 nm. […]
The effects of the PEGylated proteins and unPEGylated protein in stimulating the cAMP production were examined in rat insulinoma β-cells RINm5F. The cAMP production was analyzed using a commercial cAMP kit (PerkinElmer).

B1: Cal.GLP: GLP-1 grafted into human calbindin D9k by replacing a C-terminal helix; SEQ ID NO: 14 (protein)
chain: MSTKKSPEELKRIFEKYAAKEGDPDQLSKDELKLLIQAEFPSLLKGPNTLDDLFQELDKNGHAEGTFTSDVSSYLEGQAAKEFIAWLVKGRG
modifications: Fusion protein Cal.GLP
binding to CHO cells (CHO cells): not CHO cells | integrity and folding after boiling (Stability to boiling): remained intact and folded | binding to RINm5F cells (RINm5F cells): bound to RINm5F cells | folding in different pH conditions [1]: remained folded in wide ranges of pH conditions | degradation in mice serum [2]: no degradation | binding to αTC1 cells (αTC1 cells): not to αTC1 cells | acute toxicity (CD-1 mice): did not have acute toxicity | mortality (CD-1 mice; 14 mice): no mouse died | body weight change (diabetic mice [3]): did not result significant weight gain or lose | lowering and stabilizing the blood glucose (diabetic mice [3]): stronger effects in lowering and stabilizing the blood glucose | integrity after incubation with human serum [4]: remained intact | blood glucose lowering post glucose and drug administration (diabetic mice [5]): dramatic blood glucose lowering | duration of increase in insulin and decrease in glucose (diabetic mice [5]): ~2 h | glucose lowering and duration compared to exendin-4 (diabetic mice [5]): larger glucose lowering in longer duration | blood glucose decrease and effective time compared to exendin-4 ([6]; 25 nmole/kg i.p.): bigger blood glucose decrease and significantly longer effective time | drop of blood glucose levels ([6]; 25 nmole/kg i.p., 4 hour time course): about 215 mg/dl | blood glucose levels after re-feed ([6]; 6 hours post administration, one hour after re-feed): minor increase in blood glucose levels

B2: calbindin: parental host protein human Calbindin D9k, negative control; SEQ ID NO: 13 (protein)
chain: MSTKKSPEELKRIFEKYAAKEGDPDQLSKDELKLLIQAEFPSLLKGPNTLDDLFQELDKNGDGEVSFEEFQVLVKKISQ
modifications: human calbindin D9K
binding to CHO cells (CHO cells): did not bind to either cell | blood circulation time [7]: more than 24 hours | binding to RINm5F cells (RINm5F cells): did not bind to either cell | R1 [8]: 6.58 mM^−1S^−1 | increase of intracellular cAMP level (GLP-1 receptor): could not increase cell intracellular cAMP level | blood glucose lowering post glucose and drug administration (diabetic mice [5]): did not | change of blood glucose levels ([6]; control group, same dose (25 nmole/kg)): decreased slightly
